{"source": "paper PMC4369792", "key": {"[1]": {"biological_target": "fibronectin from human plasma (human)", "assay": "single-molecule force spectroscopy"}, "[2]": {"biological_target": "salivary agglutinin (SAG) glycoprotein complex (UniProt Q9UGM3)", "sequence (Q9UGM3 whole entry, looked up, one chain of several)": "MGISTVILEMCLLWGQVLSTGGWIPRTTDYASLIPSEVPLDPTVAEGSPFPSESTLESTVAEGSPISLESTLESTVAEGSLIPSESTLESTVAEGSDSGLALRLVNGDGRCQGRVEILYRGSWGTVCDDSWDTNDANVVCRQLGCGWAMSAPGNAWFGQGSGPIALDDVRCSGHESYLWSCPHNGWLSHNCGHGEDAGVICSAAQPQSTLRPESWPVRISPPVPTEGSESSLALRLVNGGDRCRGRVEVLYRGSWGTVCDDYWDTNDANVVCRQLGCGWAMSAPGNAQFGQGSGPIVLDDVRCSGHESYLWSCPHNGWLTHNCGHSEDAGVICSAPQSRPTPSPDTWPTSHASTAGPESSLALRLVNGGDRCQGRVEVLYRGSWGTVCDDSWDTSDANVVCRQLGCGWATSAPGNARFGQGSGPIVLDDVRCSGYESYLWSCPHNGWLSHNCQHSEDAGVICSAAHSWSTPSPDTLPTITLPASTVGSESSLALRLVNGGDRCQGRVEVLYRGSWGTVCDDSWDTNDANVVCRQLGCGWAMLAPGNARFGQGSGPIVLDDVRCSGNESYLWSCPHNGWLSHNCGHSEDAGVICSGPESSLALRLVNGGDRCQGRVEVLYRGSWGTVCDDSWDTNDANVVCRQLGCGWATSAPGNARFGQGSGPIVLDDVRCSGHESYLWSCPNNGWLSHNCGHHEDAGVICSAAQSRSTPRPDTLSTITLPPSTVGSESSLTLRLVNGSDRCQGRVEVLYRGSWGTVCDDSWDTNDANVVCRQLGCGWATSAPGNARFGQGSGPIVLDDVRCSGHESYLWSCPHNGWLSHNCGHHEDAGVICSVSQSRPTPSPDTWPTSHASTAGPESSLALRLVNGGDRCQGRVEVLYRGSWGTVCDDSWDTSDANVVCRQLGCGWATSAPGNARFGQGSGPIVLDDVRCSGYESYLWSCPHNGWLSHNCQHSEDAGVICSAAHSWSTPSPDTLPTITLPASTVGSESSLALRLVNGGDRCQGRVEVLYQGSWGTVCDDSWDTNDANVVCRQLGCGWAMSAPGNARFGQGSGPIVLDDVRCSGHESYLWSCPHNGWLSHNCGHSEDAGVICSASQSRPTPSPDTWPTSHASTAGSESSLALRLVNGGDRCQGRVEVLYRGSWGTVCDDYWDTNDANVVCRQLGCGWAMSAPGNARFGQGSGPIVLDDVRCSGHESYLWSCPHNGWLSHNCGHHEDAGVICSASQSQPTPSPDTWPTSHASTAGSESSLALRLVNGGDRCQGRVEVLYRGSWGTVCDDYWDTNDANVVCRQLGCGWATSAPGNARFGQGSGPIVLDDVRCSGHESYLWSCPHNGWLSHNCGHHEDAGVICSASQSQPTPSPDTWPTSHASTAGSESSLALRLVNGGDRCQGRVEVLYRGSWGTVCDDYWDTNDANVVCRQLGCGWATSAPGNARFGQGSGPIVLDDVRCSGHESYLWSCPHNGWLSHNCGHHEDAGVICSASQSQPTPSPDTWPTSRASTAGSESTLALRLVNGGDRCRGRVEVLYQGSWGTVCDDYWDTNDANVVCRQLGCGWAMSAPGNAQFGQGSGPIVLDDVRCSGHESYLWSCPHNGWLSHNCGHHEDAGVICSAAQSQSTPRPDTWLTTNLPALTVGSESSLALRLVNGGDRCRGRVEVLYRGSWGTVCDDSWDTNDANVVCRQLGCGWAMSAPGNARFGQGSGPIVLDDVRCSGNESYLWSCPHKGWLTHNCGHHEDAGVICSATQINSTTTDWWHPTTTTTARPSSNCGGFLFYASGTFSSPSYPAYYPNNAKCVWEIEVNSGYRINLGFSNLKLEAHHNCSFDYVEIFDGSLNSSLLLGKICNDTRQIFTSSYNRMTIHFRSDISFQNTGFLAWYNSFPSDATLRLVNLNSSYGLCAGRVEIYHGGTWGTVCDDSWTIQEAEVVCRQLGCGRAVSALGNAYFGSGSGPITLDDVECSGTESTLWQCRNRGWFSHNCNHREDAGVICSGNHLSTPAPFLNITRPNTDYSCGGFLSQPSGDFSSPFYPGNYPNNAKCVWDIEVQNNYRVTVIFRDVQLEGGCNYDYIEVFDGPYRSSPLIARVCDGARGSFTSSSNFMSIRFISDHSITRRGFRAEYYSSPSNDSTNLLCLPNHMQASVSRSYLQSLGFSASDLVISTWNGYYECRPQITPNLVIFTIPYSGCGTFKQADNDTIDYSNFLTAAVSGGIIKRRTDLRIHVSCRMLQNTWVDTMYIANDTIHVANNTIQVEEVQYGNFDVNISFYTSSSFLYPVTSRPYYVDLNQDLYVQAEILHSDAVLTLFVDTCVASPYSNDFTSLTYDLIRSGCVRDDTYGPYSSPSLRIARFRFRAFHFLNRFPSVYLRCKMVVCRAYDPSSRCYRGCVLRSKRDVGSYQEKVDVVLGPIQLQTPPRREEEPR", "assay": "single-cell force spectroscopy"}, "[3]": {"biological_target": "salivary agglutinin (SAG) glycoprotein complex (UniProt Q9UGM3)", "assay": "single-molecule force spectroscopy"}}}
{"substance": "P1 globular head fragment (A3VP1) (domain or fragment)", "values": [{"measurement": "binding frequency", "setting": "[1]", "result": 49, "unit": "%"}]}
{"substance": "cell surface-localized P1 on living Streptococcus mutans NG8 cells (from UniProt P23504 39-1532) (natural protein)", "values": [{"measurement": "adhesion force", "setting": "[2]", "result": "100 to 1500", "unit": "pN"}]}
{"substance": "full-length P1 adhesin of Streptococcus mutans (from UniProt P23504 39-1532) (natural protein)", "values": [{"measurement": "mean adhesion force", "setting": "[1]", "result": 46, "unit": "pN"}, {"measurement": "most probable adhesion force", "setting": "[3]", "result": 57, "unit": "pN"}]}
